# Laboratory results from the DeepSol protein solubility set.
# Assay: soluble on expression in E. coli; label from the status in PepcDB or PDB records
row,Sequence,soluble on expression in E. coli
1,MASANNQNKFLDPRERGNILNYLKVCLLLARAVRRMHAAGLCHSDLSYKNVLIDPEQGHACIIDVDGLVVPGKFPPDVVGTPDFIAPEVVKTSHLLKEDPQRILPNITTDRHALSVLIYMYLFYRHPLRGGKIHDMDDEVRDESLAMGERALFIEHPTDRSNAVKLNQVKPSSLPWADPQKVPYTIMGPYLTQLFEKAFIDGLHDPSKRPTADEWETALVKTVDLIQPCQNTACEQKWYVFSGKTKPVCPYCLEHHHHHH,soluble
2,MGSDKIHHHHHHMKYKIHWLYKTKRGLQTDLTTDYMNIEEVLQFAEDFEKTGRVKELLFYDEMDAEWSLKEMKKLSKQVEDEPQEILVYFDGGYDVQTKEAGVGICVYYKKGNKNYRIRRNAYIEGIYDNNEAEYASLLYSMNILEELGIKYEAVTLRGDSQVVLQQLAGEWPCYDEHLNHYLDQIEQKAKQMKLKLVCEPISRKQNKEAHQLATQALEGTVIDSHKEITE,not soluble
3,IEVAAIQGNVPRMGLDFNAQRRAVLANHARETLKLDEQVDLVIWPENSSDVNPFSDAQARAIIDGAVEHVQAPILVGTITVDEVGPRNTMQVFDPVEGAAEYHNKKFLQPFGEYMPFREFLRIFSPYVDSAGNFQPGDGTGVVEMNAANLGRAVTVGVMTCYEVIFDRAGRDAIANGAEFLTTPTNNATFGFTDMTYQQLAMSRMRAIEFDRAVVVAATSGVSAIVNPDGSISQNTRIFEAATLTESIPLKDTVTIAARVGFY,not soluble
4,MTRKIDYLNYEEIQSLKNSLLHNIKHTYISRYMILTALYTGMRPGEIAVLTWSDIDFKNQTININKSYNHDKGRVDNYDSSEIDKSTKNTNSVRIIKVDKKFLDILSQLKQNDHEKIFIGKDGTIPTSNAVNKVWRKQLEKLNIDKPSFHFHSVRHTHVALLPFKGVPLYAISKRLGHANMSTTAKKYAYMLDELKQQVRLEHHHHHH,not soluble
5,MGSDKIHHHHHHMTSSPTSTQESSTSWYLLLQQLIDGESLSRSQAAELMQGWLSEAVPPELSGAILTALNFKGVSADELTGMAEVLQSQSKMGTGENYSQLPITNSPFSIIDTCGTGGDGSSTFNISTAVAFVAAAYGVPVAKHGNRSASSLTGSADVLEALGVNLGASPEKVQAALQEVGITFLFAPGWHPALKAVATLRRTLRIRTVFNLLGPLVNPLRPTGQVVGLFTPKLLTTVAQALDNLGKQKAIVLHGRERLDEAGLGDLTDLAVLSDGELQLTTINPQEVGVTPAPIGALRGGDVQENAEILKAVLQGKGTQAQQDAVALNAALALQVAGAVPLLDHAQGVSVAKEILQTGTAWAKLAQLVYFLGN,soluble
6,TDLSQRPRRLRKSPALRAMFEETTLSLNDLVLPIFVEEEIDDYKAVEAMPGVMRIPEKHLAREIERIANAGIRSVMTFGISHHTDETGSDAWREDGLVARMSRICKQTVPEMIVMSDTCFCEYTSHGHCGVLKEHGVDNDATLENLGKQAVVAAAAGADFIAPSAAMDGQVQAIRQALDAAGFKDTAIMSYSTKFASSFYGPFREAAGSALKGDRKSYQMNPMNRREAIRESLLDEAQGADCLMVKPAGAYLDIVRELRERTELPIGAYQVSGEYAMIKFAALAGAIDEEKVVLESLGSIKRAGADLIFSYFALDLAEKKILR,soluble
7,MSLTFSILAHDPETGAIGGAAATGSLCVGGWVLRGDLNAGMSASQGAAPSTFWGEEVLQHLRDGSHPEDAVNHVTSQDSGRAYRQLAAMDLLGNAAAFTGSENQDIKGSVTFASGIASGNMLGDNSVLGAMTEAFVASDLTFERRLLAALIAAEGAGSDFRGLLSAAMLVLHPDRPPVTLRIDYHPDNPIGALEQLYQKATTGDYADWARQVPVLSDKERILDEGHHHHHH,soluble
8,SRLSRIDLAVDDFHGLFGREYAKKAYSDDAFRTARAGRAPNGGERLVSEPNGKIINESFEVGSRESRIYWRIYNKAAQLGLDMHWFRNEVELKDMPIDVLLNIEGYFAGLCAYSASIINSLPVKVVTKKRQVALDIHSRIKWARRQVGKTLFDISKHFGGDLERVFGALISKEIHDDSLNLPDSYM,not soluble
9,MSLLSEENEFLFDLNEIPEKTVYSDDGDEFLFDLNKIPPREETVNSSDEDFADHLHRRNQATKRKKKLRKRPKVFRHIEKVISFSFYLVLRASSFLFLDLNWGLRMDTDPYQELRMDTDHMTYEQLLQLCNNMGYENSGVKASNIDRCLRNTKPSEFQSLADKICCICQDGFQKRAGVGKLNCGHNFHVNCVKPWILTKK,soluble
10,MKPTTISLLQKYKQEKKRFATITAYDYSFAKLFADEGLNVMLVGDSLGMTVQGHDSTLPVTVADIAYHTAAVRRGAPNCLLLADLPFMAYATPEQAFENAATVMRAGANMVKIEGGEWLVETVQMLTERAVPVCGHLGLTPQSVNIFGGYKVQGRGDEAGDQLLSDALALEAAGAQLLVLECVPVELAKRITEALAIPVIGIGAGNVTDGQILVMHDAFGITGGHIPKFAKNFLAETGDIRAAVRQYMAEVESGVYPGEEHSFH,soluble
11,MAHHHHHHMPRPPQRIRAQSEGVVGRWYTNYWTLHSVRYQCQLAGVEWQFGERQRPRTNYDEPHMYTDFEETKAIRDYRSRWINVNRSLVGMSRRMKESEEEARYLHFKKVQDTFWSNRKVLVNRIKSMHNQGTLQSAKDLPIKTINIKAFLAE,soluble
12,MSLDAEKQLANITMGLPLSPAADSARSARHALSLIATARPPAFITTIAKEVHRHTALAANTQSQQSIHTTTLARAKGEILRVIEILIEKMPTDVVDLLVEVMDIIMYCLEGSLVKKKGLQECFPAICRFYMVSYYERSHRIAVGARHGSVALYDIRTGKCQTIHGHKGPITAVSFAPDGRYLATYSNTDSHISFWQMNTSLLGSIGMLNSAPQLRCIKTYQVPPVQPASPGSHNALKLARLIWTSNRNVILMAHDGKEHRFMVEGHHHHHH,not soluble
13,MHHHHHHSSRENLYFQGTLPLWIGKPGDKPPPLCGAIPASGDYVARPGDKVAARVKAVDGDEQWILAEVVSYSHATNKYEVDDIDEEGKERHTLSRRRVIPLPQWKANPETDPEALFQKEQLVLALYPQTTCFYRALIHAPPQRPQDDYSVLFEDTSYADGYSPPLNVAQRYVVACKEPK,soluble
14,GSHMKDYSLEIDAVMKAAQINDTNNFVQALMRWHFSKETGSPFWLGMREQLNFDPIKDVKTINDLRQFSDISHCLRQEPVANLVPQGLPADSHPQVYESGGTTGAPKYVVAYDAWIEALISWRMSGYQHRPGRPSGNTLAAIPTGPHIVGAINKERALRLGGMFFSIDIDPRWVKRSLSEGDTATVRKYTHHLVDQVQNTLMNQDIRFLVTTPPVLRELLKRPEVVLQMKQSLAQITLGGTELNLDEIKFIASEILPDCEFSASYGSTSALGVSRSLLITSESQQVIYDSFSPFITYDVVDSITAQTVEYGERGNVIVTHLSPWAFYPRVAERDTAIRLPGVSGFAGDRLADIEPLKISEGRKVIEGVY,soluble
15,MKPIQLPLSVRLRDDATFANYYPGANAAALGYVERLCEAEAGWAESLIYLWGHDGVGRSHLLQAACLRFEQFEERTIYLPMADLVQYGPEIFDDLEQCELVCIDDLDVLVGKREWEEGLFHLFNRLRDTGRRLLLAASKSPRELQVKLPDLKSRLTMALIFQLHGLSDEDKLRALQLRASRRGLHLTDEVGRFILNRGSRSMNSLFDLLEQLDRASLQAQRKLTIPFLKETLGWLEHHHHHH,soluble
16,MAHHHHHHMIENLQNCKKLRLLELGYNKIRMIENIEHLTNLEELWLGKNKIEQINLPYLPKLKKLSVQHNRLTDICEKSIKNILCVEELYISYNKINHIIDTFKDLKHLKVFDLSYNEINNISICSYLKSLEELWLNNNNIDNLEMIKKLSTIENLKTLYLEKNKIQDNLKENYRKTIIHILPQLKQLDALPIPSSPTLQK,not soluble
17,MDVFLMIRRHKTTIFTDAKESSTVFELKRIVEGILKRPPDEQRLYKDDQLLDDGKTLGECGFTSQTARPQAPATVGLAFRADDTFEALCIEPFSSPPELPDVMKPQDSGSSANEQAVQ,soluble
18,MKVLFVYAGMHPAHEPFVEAVKADVYPAYHKDVNGFVKFVEGLKMAREYPDYDVYILEGGMPMFPMYLRKKLFRKNGFVVGLLADETFINLVERQPHYSTAETLIHRISAKVLDAAIAVSPFVKEYAEKIIDVPIEVVRPAIPKDSYEKLGKVKPNLESNVIVSVGQPRFSIGMDVLVEQFRIAKKQIPDLELWIVGKGHPKEYERVEGVKVLGYVEDLSEVFEEASLFVHAGRCSAYPVATLEAMRAGLPVVVSTMTGTKEIVERVEEQVKREFGLNYDGNKFIQPLNRIFEGIVEYFKLDSEVRRIMSELYKKESEEFEPGKRGREFKEKFKKLLANFNNKEVP,not soluble
